# Values quoted from earlier work in article PMC3789827.
# Legend:
# [1] = target: BMPR1B ECD (Homo sapiens) (UniProt O00238); assay: SPR (Biacore)
# [2] = target: BMPR1A ECD (Homo sapiens) (UniProt P36894); assay: SPR (Biacore)
# BMPR1A ECD (Homo sapiens), sequence (P36894 24-152): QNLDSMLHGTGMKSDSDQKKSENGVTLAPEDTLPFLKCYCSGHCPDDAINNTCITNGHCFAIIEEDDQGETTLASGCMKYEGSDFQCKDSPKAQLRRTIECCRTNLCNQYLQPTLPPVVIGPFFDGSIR
# GDF5, sequence (P43026 382-501): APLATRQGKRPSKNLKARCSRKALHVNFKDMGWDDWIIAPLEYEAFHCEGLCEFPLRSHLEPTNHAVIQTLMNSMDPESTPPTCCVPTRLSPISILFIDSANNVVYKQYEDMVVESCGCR
# BMPR1B ECD (Homo sapiens), sequence (O00238 14-126): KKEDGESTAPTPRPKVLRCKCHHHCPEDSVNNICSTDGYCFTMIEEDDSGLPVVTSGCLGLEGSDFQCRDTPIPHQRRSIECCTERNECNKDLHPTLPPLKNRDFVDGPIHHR
substance,measurement,setting,value
GDF5 (from UniProt P43026),Kd,[1],1.1 nM
same,Kd,[2],17 nM
